According to patent US20160024210A1 (AstraZeneca / MedImmune, published 2016):
Where a chain is given by its changes, count along the chain named.

What was measured:
[1] = target: T1, human H7CR (B7-H7 counter-receptor) (human, UniProt Q96BF3 23-282); assay: flow cytometry, 5 µg/ml mAb on H7CR CHO stable transfectants [C]
T1 construct: Used for H7CR on CHO.hH7CR transfectants, human T cells and tonsil tissue; also called B7-H7CR; CD28H
T1 sequence: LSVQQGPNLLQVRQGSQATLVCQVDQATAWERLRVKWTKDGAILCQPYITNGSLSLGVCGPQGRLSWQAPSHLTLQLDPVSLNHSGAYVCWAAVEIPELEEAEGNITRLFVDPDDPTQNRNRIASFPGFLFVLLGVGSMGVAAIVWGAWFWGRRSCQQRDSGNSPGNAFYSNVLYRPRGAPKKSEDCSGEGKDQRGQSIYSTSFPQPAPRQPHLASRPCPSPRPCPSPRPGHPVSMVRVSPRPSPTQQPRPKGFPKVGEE
Description: 5 μg/ml H7CR 1.3, 4.5 and 7.8 mAbs was used to stain H7CR stable transfectants to show binding specificity (FIG. 4). 10 μg/ml B7-H7mIg fusion protein was also used to stain H7CR CHO transfectants. H7CR mAbs were added to the system to evaluate the blocking capability of H7CR mAbs on B7-H7-H7CR interactions (FIG. 5). Immunohistochemistry staining for H7CR on human tonsil paraffin-embedded section was performed with 4.5 antibody at a concentration of 5 μg/ml using a standard protocol (FIG. 6). For cell surface staining and analysis by flow cytometry, cells were incubated with the indicated mAb for 30 min at 4° C., washed with buffer and analyzed. Expression of H7CR on human and mouse PBMC was evaluated by lineage marker and 1.3 antibody staining (FIG. 7-11). Expression of B7-H7 on activated monocyte-derived DC was evaluated by anti-B7-H7 antibody staining (FIG. 12).

[2] = target: T1, human H7CR (B7-H7 counter-receptor); assay: binding to human H7CR as endogenously expressed on the surface of a cell
[3] = target: T2, H7CR-GFP fusion protein on transfected CHO cells (Homo sapiens (Human), UniProt Q96BF3 23-282); assay: flow cytometry, 5 µg/ml variant on H7CR-GFP transfected CHO cells, anti-hIg PE secondary antibody [row HC1-2, column LC1-2]
T2 construct: not shown: GFP part
T2 sequence: T1 sequence
Description: (§1) 5 μg/ml antibodies from thirty-six variants were incubated with H7CR-GFP fusion protein transfected CHO cells for 30 min at room temperature. Cells were then washed twice with 2 ml flow cytometry buffer, and resuspended in 100 μl flow cytometry buffer. 1 μl anti-hIg PE secondary antibody (Biolegend) was added and incubated with the cells for 15 mins Samples were then washed and resuspended in 100 μl flow cytometry buffer. Flow Cytometry data was acquired using BD Canto (BD Biosciences) in plate format and analyzed by FlowJo software.

[4] = target: T2, H7CR-GFP fusion protein on transfected …; assay: flow cytometry, 5 µg/ml variant on H7CR-GFP transfected CHO cells, anti-hIg PE secondary antibody [row HC1-2, column LC2-2]
Description: as §1

[5] = target: T2, H7CR-GFP fusion protein on transfected …; assay: flow cytometry, 5 µg/ml variant on H7CR-GFP transfected CHO cells, anti-hIg PE secondary antibody [row HC1-2, column LC1-3]
Description: as §1

[6] = target: T2, H7CR-GFP fusion protein on transfected …; assay: flow cytometry, 5 µg/ml variant on H7CR-GFP transfected CHO cells, anti-hIg PE secondary antibody [row HC1-1, column LC1-3]
Description: as §1

[7] = target: T2, H7CR-GFP fusion protein on transfected …; assay: flow cytometry, 5 µg/ml variant on H7CR-GFP transfected CHO cells, anti-hIg PE secondary antibody [row HC1-1, column LC2-2]
Description: as §1

[8] = target: T2, H7CR-GFP fusion protein on transfected …; assay: flow cytometry, 5 µg/ml variant on H7CR-GFP transfected CHO cells, anti-hIg PE secondary antibody [row HC1-3, column LC1-3]
Description: as §1

[9] = target: T2, H7CR-GFP fusion protein on transfected …; assay: flow cytometry, 5 µg/ml variant on H7CR-GFP transfected CHO cells, anti-hIg PE secondary antibody [row HC1-2, column LC2-1]
Description: as §1

[10] = target: T2, H7CR-GFP fusion protein on transfected …; assay: flow cytometry, 5 µg/ml variant on H7CR-GFP transfected CHO cells, anti-hIg PE secondary antibody [row HC1-3, column LC1-1]
Description: as §1

[11] = target: T2, H7CR-GFP fusion protein on transfected …; assay: flow cytometry, 5 µg/ml variant on H7CR-GFP transfected CHO cells, anti-hIg PE secondary antibody [row HC1-1, column LC2-1]
Description: as §1

[12] = target: T2, H7CR-GFP fusion protein on transfected …; assay: flow cytometry, 5 µg/ml variant on H7CR-GFP transfected CHO cells, anti-hIg PE secondary antibody [row HC1-1, column LC1-2]
Description: as §1

[13] = target: T2, H7CR-GFP fusion protein on transfected …; assay: flow cytometry, 5 µg/ml variant on H7CR-GFP transfected CHO cells, anti-hIg PE secondary antibody [row HC1-3, column LC1-2]
Description: as §1

[14] = target: T2, H7CR-GFP fusion protein on transfected …; assay: flow cytometry, 5 µg/ml variant on H7CR-GFP transfected CHO cells, anti-hIg PE secondary antibody [row HC1-2, column LC1-1]
Description: as §1

[15] = target: T2, H7CR-GFP fusion protein on transfected …; assay: flow cytometry, 5 µg/ml variant on H7CR-GFP transfected CHO cells, anti-hIg PE secondary antibody [row HC1-2, column LC2-3]
Description: as §1

[16] = target: T2, H7CR-GFP fusion protein on transfected …; assay: flow cytometry, 5 µg/ml variant on H7CR-GFP transfected CHO cells, anti-hIg PE secondary antibody [row HC1-1, column LC2-3]
Description: as §1

[17] = target: T2, H7CR-GFP fusion protein on transfected …; assay: flow cytometry, 5 µg/ml variant on H7CR-GFP transfected CHO cells, anti-hIg PE secondary antibody [row HC1-1, column LC1-1]
Description: as §1

B1: hamster anti-human H7CR antibody clone 7.8 (antibody, V domains shown)
VH: QIQLQESGPGLVKPSQSLSLTCSVTGFSITTGGYYWNWIRQFPGKKLEWMGYIYSSGRTSYNPSLKSRISITRDTSKNQFFLQLNSVTTEDTATYYCADMADKGGWFDYWGQGTLVTVSS
VL: DIVMTQSPSSLTVSAGEKVTISCLSSQSLFSSNTNRNYLSWYLQRPGQSPKLLIYHASTRLTGVPGRFIGSGSGTDFTLTVSTVQAGDLGDYFCQQHYVTPLTFGDGTRLEIK
notes: Hamster monoclonal antibody; also called H7CR7.8
binding result [1]: binds

B2: 4.5 humanized variant 8 (HC1-2 / LC1-2) (antibody, V domains shown)
VH: QVQLQESGPGLVKPSQTLSLTCTVSGFSITTGGYYWNWIRQHPGKKLEWIGYIYTSGRTSYNPSLKSRVTISRDTSKNQFSLKLSSVTAADTAVYYCADMADKGGWFAYWGQGTLVTVSS
VL: DIVMTQSPDSLAVSLGERATINCKSSQSLFSSNTKRNYLNWYQQKPGQPPKLLIYHASTRLSGVPDRFSGSGSGTDFTLTISSLQAEDVADYFCQQHYETPLTFGDGTRLEIK
notes: Variable domains only; detected with anti-hIg secondary; also called VH1B / VL1B
binding result [2]: binds | binding result [3]: binds

B3: 4.5 humanized variant 11 (HC1-2 / LC2-2) (antibody, V domains shown)
VH: B2 VH
VL: DIVMTQTPLSLPVTPGEPASISCRSSQSLFSSNTKRNYLNWYLQKPGQSPKLLIYHASTRLSGVPDRFSGSGSGTDFTLKISRVEAEDVGDYFCQQHYETPLTFGDGTRLEIK
notes: Variable domains only; detected with anti-hIg secondary; also called VH1B / VL2B
binding result [4]: binds | binding result [2]: binds

B4: 4.5 humanized variant 9 (HC1-2 / LC1-3) (antibody, V domains shown)
VH: B2 VH
VL: B2 VL with K24L, P49S
notes: Variable domains only; detected with anti-hIg secondary; also called VH1B / VL1C
binding result [5]: binds | binding result [2]: binds

B5: 4.5 humanized variant 3 (HC1-1 / LC1-3) (antibody, V domains shown)
VH: B2 VH with N37S, K46G, S60Y, R73V
VL: B2 VL with K24L, P49S
notes: Variable domains only; detected with anti-hIg secondary; also called VH1A / VL1C
binding result [6]: binds | binding result [2]: binds

B6: 4.5 humanized variant 5 (HC1-1 / LC2-2) (antibody, V domains shown)
VH: B2 VH with N37S, K46G, S60Y, R73V
VL: B3 VL
notes: Variable domains only; detected with anti-hIg secondary; also called VH1A / VL2B
binding result [7]: binds | binding result [2]: binds

B7: 4.5 humanized variant 15 (HC1-3 / LC1-3) (antibody, V domains shown)
VH: B2 VH with H42F, I50M
VL: B2 VL with K24L, P49S
notes: Variable domains only; detected with anti-hIg secondary; also called VH1C / VL1C
binding result [8]: binds | binding result [2]: binds

B8: 4.5 humanized variant 10 (HC1-2 / LC2-1) (antibody, V domains shown)
VH: B2 VH
VL: B3 VL with N40D, K51Q, T59Y, L61A, D91V, F93Y, D106Q
notes: Variable domains only; detected with anti-hIg secondary; also called VH1B / VL2A
binding result [2]: binds | binding result [9]: binds

B9: 4.5 humanized variant 13 (HC1-3 / LC1-1) (antibody, V domains shown)
VH: B2 VH with H42F, I50M
VL: B2 VL with N40A, L61E, D91V, F93Y, D106Q
notes: Variable domains only; detected with anti-hIg secondary; also called VH1C / VL1A
binding result [2]: binds | binding result [10]: binds

B10: 4.5 humanized variant 4 (HC1-1 / LC2-1) (antibody, V domains shown)
VH: B2 VH with N37S, K46G, S60Y, R73V
VL: B3 VL with N40D, K51Q, T59Y, L61A, D91V, F93Y, D106Q
notes: Variable domains only; detected with anti-hIg secondary; also called VH1A / VL2A
binding result [2]: binds | binding result [11]: binds

B11: 4.5 humanized variant 2 (HC1-1 / LC1-2) (antibody, V domains shown)
VH: B2 VH with N37S, K46G, S60Y, R73V
VL: B2 VL
notes: Variable domains only; detected with anti-hIg secondary; also called VH1A / VL1B
binding result [2]: binds | binding result [12]: binds

B12: 4.5 humanized variant 14 (HC1-3 / LC1-2) (antibody, V domains shown)
VH: B2 VH with H42F, I50M
VL: B2 VL
notes: Variable domains only; detected with anti-hIg secondary; also called VH1C / VL1B
binding result [13]: binds | binding result [2]: binds

B13: 4.5 humanized variant 7 (HC1-2 / LC1-1) (antibody, V domains shown)
VH: B2 VH
VL: B2 VL with N40A, L61E, D91V, F93Y, D106Q
notes: Variable domains only; detected with anti-hIg secondary; also called VH1B / VL1A
binding result [2]: binds | binding result [14]: binds

B14: 4.5 humanized variant 12 (HC1-2 / LC2-3) (antibody, V domains shown)
VH: B2 VH
VL: B3 VL with L9S, R24L
notes: Variable domains only; detected with anti-hIg secondary; also called VH1B / VL2C
binding result [2]: binds | binding result [15]: binds

B15: 4.5 humanized variant 6 (HC1-1 / LC2-3) (antibody, V domains shown)
VH: B2 VH with N37S, K46G, S60Y, R73V
VL: B3 VL with L9S, R24L
notes: Variable domains only; detected with anti-hIg secondary; also called VH1A / VL2C
binding result [2]: binds | binding result [16]: binds

B16: 4.5 humanized variant 1 (HC1-1 / LC1-1) (antibody, V domains shown)
VH: B2 VH with N37S, K46G, S60Y, R73V
VL: B2 VL with N40A, L61E, D91V, F93Y, D106Q
notes: Variable domains only; detected with anti-hIg secondary; also called VH1A / VL1A
binding result [17]: binds | binding result [2]: binds
